The supplement of paper PMC5998384

Key:
HeLa Kyoto [1] = assay: solubility change mitosis vs G1/S (difference of NP-40 vs SDS log2 ratios) (log2 ratio difference); higher = more soluble in mitosis
HeLa Kyoto [2] = assay: solubility in G1/S (NP-40 vs SDS abundance) (log2 ratio); higher = more soluble; details: cell cycle stage: G1/S
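For solubility change mitosis vs G1/S (difference of NP-40 vs SDS log2 ratios) in this document: synchronized HeLa Kyoto cells (double thymidine block for G1/S, nocodazole release for mitosis), protein amounts in NP-40 versus SDS lysates quantified by mass spectrometry, three biological replicates.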
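For solubility in G1/S (NP-40 vs SDS abundance) in this document: HeLa Kyoto cells arrested at G1/S by double thymidine block, proteins quantified by TMT10plex mass spectrometry in mild NP-40 versus SDS extracts, three biological replicates.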

| Sequence | solubility change mitosis (log2) (HeLa Kyoto [1]) | solubility in G1/S (log2) (HeLa Kyoto [2]) |
| --- | --- | --- |
| MGCAPSIHISERLVAEDAPSPAAPPLSSGGPRLPQGQKTAALPRTRGAGLLESELRDGSGKKVAVADVQFGPMRFHQDQLQVLLVFTKEDNQCNGFCRACEKAGFKCTVTKEAQAVLACFLDKHHDIIIIDHRNPRQLDAEALCRSIRSSKLSENTVIVGVVRRVDREELSVMPFISAGFTRRYVENPNIMACYNELLQLEFGEVRSQLKLRACNSVFTALENSEDAIEITSEDRFIQYANPAFETTMGYQSGELIGKELGEVPINEKKADLLDTINSCIRIGKEWQGIYYAKKKNGDNIQQNVKIIPVIGQGGKIRHYVSIIRVCNGNNKAEKISECVQSDTHTDNQTGKHKDRRKGSLDVKAVASRATEVSSQRRHSSMARIHSMTIEAPITKVINIINAAQESSPMPVTEALDRVLEILRTTELYSPQFGAKDDDPHANDLVGGLMSDGLRRLSGNEYVLSTKNTQMVSSNIITPISLDDVPPRIARAMENEEYWDFDIFELEAATHNRPLIYLGLKMFARFGICEFLHCSESTLRSWLQIIEANYHSSNPYHNSTHSADVLHATAYFLSKERIKETLDPIDEVAALIAATIHDVDHPGRTNSFLCNAGSELAILYNDTAVLESHHAALAFQLTTGDDKCNIFKNMERNDYRTLRQGIIDMVLATEMTKHFEHVNKFVNSINKPLATLEENGETDKNQEVINTMLRTPENRTLIKRMLIKCADVSNPCRPLQYCIEWAARISEEYFSQTDEEKQQGLPVVMPVFDRNTCSIPKSQISFIDYFITDMFDAWDAFVDLPDLMQHLDNNFKYWKGLDEMKLRNLRPPPE [PDE8A] | -0.222 | -0.192 |
| MGELCRRDSALTALDEETLWEMMESHRHRIVRCICPSRLTPYLRQAKVLCQLDEEEVLHSPRLTNSAMRAGHLLDLLKTRGKNGAIAFLESLKFHNPDVYTLVTGLQPDVDFSNFSGLMETSKLTECLAGAIGSLQEELNQEKGQKEVLLRRCQQLQEHLGLAETRAEGLHQLEADHSRMKREVSAHFHEVLRLKDEMLSLSLHYSNALQEKELAASRCRSLQEELYLLKQELQRANMVSSCELELQEQSLRTASDQESGDEELNRLKEENEKLRSLTFSLAEKDILEQSLDEARGSRQELVERIHSLRERAVAAERQREQYWEEKEQTLLQFQKSKMACQLYREKVNALQAQVCELQKERDQAYSARDSAQREISQSLVEKDSLRRQVFELTDQVCELRTQLRQLQAEPPGVLKQEARTREPCPREKQRLVRMHAICPRDDSDCSLVSSTESQLLSDLSATSSRELVDSFRSSSPAPPSQQSLYKRVAEDFGEEPWSFSSCLEIPEGDPGALPGAKAGDPHLDYELLDTADLPQLESSLQPVSPGRLDVSESGVLMRRRPARRILSQVTMLAFQGDALLEQISVIGGNLTGIFIHRVTPGSAADQMALRPGTQIVMVDYEASEPLFKAVLEDTTLEEAVGLLRRVDGFCCLSVKVNTDGYKRLLQDLEAKVATSGDSFYIRVNLAMEGRAKGELQVHCNEVLHVTDTMFQGCGCWHAHRVNSYTMKDTAAHGTIPNYSRAQQQLIALIQDMTQQCTVTRKPSSGGPQKLVRIVSMDKAKASPLRLSFDRGQLDPSRMEGSSTCFWAESCLTLVPYTLVRPHRPARPRPVLLVPRAVGKILSEKLCLLQGFKKCLAEYLSQEEYEAWSQRGDIIQEGEVSGGRCWVTRHAVESLMEKNTHALLDVQLDSVCTLHRMDIFPIVIHVSVNEKMAKKLKKGLQRLGTSEEQLLEAARQEEGDLDRAPCLYSSLAPDGWSDLDGLLSCVRQAIADEQKKVVWTEQSPR [CARD14] | 0.0129 | -0.00296 |
| MGEPSREEYKIQSFDAETQQLLKTALKDPGAVDLEKVANVIVDHSLQDCVFSKEAGRMCYAIIQAESKQAGQSVFRRGLLNRLQQEYQAREQLRARSLQGWVCYVTFICNIFDYLRVNNMPMMALVNPVYDCLFRLAQPDSLSKEEEVDCLVLQLHRVGEQLEKMNGQRMDELFVLIRDGFLLPTGLSSLAQLLLLEIIEFRAAGWKTTPAAHKYYYSEVSD [MIF4GD] | 0.238 | 0.085 |
| MGFWCRMSENQEQEEVITVRVQDPRVQNEGSWNSYVDYKIFLHTNSKAFTAKTSCVRRRYREFVWLRKQLQRNAGLVPVPELPGKSTFFGTSDEFIEKRRQGLQHFLEKVLQSVVLLSDSQLHLFLQSQLSVPEIEACVQGRSTMTVSDAILRYAMSNCGWAQEERQSSSHLAKGDQPKSCCFLPRSGRRSSPSPPPSEEKDHLEVWAPVVDSEVPSLESPTLPPLSSPLCCDFGRPKEGTSTLQSVRRAVGGDHAVPLDPGQLETVLEK [SNX11] | -0.17 | 0.38 |
| MGIWQRLLLFGGVSLRAGGGATAPLGGSRAMVCGRQLSGAGSETLKQRRTQIMSRGLPKQKPIEGVKQVIVVASGKGGVGKSTTAVNLALALAANDSSKAIGLLDVDVYGPSVPKMMNLKGNPELSQSNLMRPLLNYGIACMSMGFLVEESEPVVWRGLMVMSAIEKLLRQVDWGQLDYLVVDMPPGTGDVQLSVSQNIPITGAVIVSTPQDIALMDAHKGAEMFRRVHVPVLGLVQNMSVFQCPKCKHKTHIFGADGARKLAQTLGLEVLGDIPLHLNIREASDTGQPIVFSQPESDEAKAYLRIAVEVVRRLPSPSE [NUBPL] | 0.138 | 0.45 |
| MGKAKVPASKRAPSSPVAKPGPVKTLTRKKNKKKKRFWKSKAREVSKKPASGPGAVVRPPKAPEDFSQNWKALQEWLLKQKSQAPEKPLVISQMGSKKKPKIIQQNKKETSPQVKGEEMPAGKDQEASRGSVPSGSKMDRRAPVPRTKASGTEHNKKGTKERTNGDIVPERGDIEHKKRKAKEAAPAPPTEEDIWFDDVDPADIEAAIGPEAAKIARKQLGQSEGSVSLSLVKEQAFGGLTRALALDCEMVGVGPKGEESMAARVSIVNQYGKCVYDKYVKPTEPVTDYRTAVSGIRPENLKQGEELEVVQKEVAEMLKGRILVGHALHNDLKVLFLDHPKKKIRDTQKYKPFKSQVKSGRPSLRLLSEKILGLQVQQAEHCSIQDAQAAMRLYVMVKKEWESMARDRRPLLTAPDHCSDDA [REXO4] | 0.875 | -0.936 |
| MGKSCKVVVCGQASVGKTSILEQLLYGNHVVGSEMIETQEDIYVGSIETDRGVREQVRFYDTRGLRDGAELPRHCFSCTDGYVLVYSTDSRESFQRVELLKKEIDKSKDKKEVTIVVLGNKCDLQEQRRVDPDVAQHWAKSEKVKLWEVSVADRRSLLEPFVYLASKMTQPQSKSAFPLSRKNKGSGSLDG [NKIRAS2] | -0.0114 | -0.133 |
| MGLSTVPDLLLPLVLLELLVGIYPSGVIGLVPHLGDREKRDSVCPQGKYIHPQNNSICCTKCHKGTYLYNDCPGPGQDTDCRECESGSFTASENHLRHCLSCSKCRKEMGQVEISSCTVDRDTVCGCRKNQYRHYWSENLFQCFNCSLCLNGTVHLSCQEKQNTVCTCHAGFFLRENECVSCSNCKKSLECTKLCLPQIENVKGTEDSGTTVLLPLVIFFGLCLLSLLFIGLMYRYQRWKSKLYSIVCGKSTPEKEGELEGTTTKPLAPNPSFSPTPGFTPTLGFSPVPSSTFTSSSTYTPGDCPNFAAPRREVAPPYQGADPILATALASDPIPNPLQKWEDSAHKPQSLDTDDPATLYAVVENVPPLRWKEFVRRLGLSDHEIDRLELQNGRCLREAQYSMLATWRRRTPRREATLELLGRVLRDMDLLGCLEDIEEALCGPAALPPAPSLLR [TNFRSF1A] | -0.132 | -0.165 |
| MGNTTTKFRKALINGDENLACQIYENNPQLKESLDPNTSYGEPYQHNTPLHYAARHGMNKILGTFLGRDGNPNKRNVHNETSMHLLCMGPQIMISEGALHPRLARPTEDDFRRADCLQMILKWKGAKLDQGEYERAAIDAVDNKKNTPLHYAAASGMKACVELLVKHGGDLFAENENKDTPCDCAEKQHHKDLALNLESQMVFSRDPEAEEIEAEYAALDKREPYEGLRPQDLRRLKDMLIVETADMLQAPLFTAEALLRAHDWDREKLLEAWMSNPENCCQRSGVQMPTPPPSGYNAWDTLPSPRTPRTTRSSVTSPDEISLSPGDLDTSLCDICMCSISVFEDPVDMPCGHDFCRGCWESFLNLKIQEGEAHNIFCPAYDCFQLVPVDIIESVVSKEMDKRYLQFDIKAFVENNPAIKWCPTPGCDRAVRLTKQGSNTSGSDTLSFPLLRAPAVDCGKGHLFCWECLGEAHEPCDCQTWKNWLQKITEMKPEELVGVSEAYEDAANCLWLLTNSKPCANCKSPIQKNEGCNHMQCAKCKYDFCWICLEEWKKHSSSTGGYYRCTRYEVIQHVEEQSKEMTVEAEKKHKRFQELDRFMHYYTRFKNHEHSYQLEQRLLKTAKEKMEQLSRALKETEGGCPDTTFIEDAVHVLLKTRRILKCSYPYGFFLEPKSTKKEIFELMQTDLEMVTEDLAQKVNRPYLRTPRHKIIKAACLVQQKRQEFLASVARGVAPADSPEAPRRSFAGGTWDWEYLGFASPEEYAEFQYRRRHRQRRRGDVHSLLSNPPDPDEPSESTLDIPEGGSSSRRPGTSVVSSASMSVLHSSSLRDYTPASRSENQDSLQALSSLDEDDPNILLAIQLSLQESGLALDEETRDFLSNEASLGAIGTSLPSRLDSVPRNTDSPRAALSSSELLELGDSLMRLGAENDPFSTDTLSSHPLSEARSDFCPSSSDPDSAGQDPNINDNLLGNIMAWFHDMNPQSIALIPPATTEISADSQLPCIKDGSEGVKDVELVLPEDSMFEDASVSEGRGTQIEENPLEENILAGEAASQAGDSGNEAANRGDGSDVSSQTPQTSSDWLEQVHLV [ANKIB1] | -0.221 | 0.00548 |
| MGPGGPLLSPSRGFLLCKTGWHSNRLLGDCGPHTPVSTALSFIAVGMAAPSMKERQVCWGARDEYWKCLDENLEDASQCKKLRSSFESSCPQQWIKYFDKRRDYLKFKEKFEAGQFEPSETTAKS [COA6] | 0.327 | -0.656 |
| MGRAVKVLQLFKTLHRTRQQVFKNDARALEAARIKINEEFKNNKSETSSKKIEELMKIGSDVELLLRTSVIQGIHTDHNTLKLVPRKDLLVENVPYCDAPTQKQ [LYRM7] | 0.302 | 0.581 |
| MGRKKIQIQRITDERNRQVTFTKRKFGLMKKAYELSVLCDCEIALIIFNHSNKLFQYASTDMDKVLLKYTEYNEPHESRTNADIIETLRKKGFNGCDSPEPDGEDSLEQSPLLEDKYRRASEELDGLFRRYGSTVPAPNFAMPVTVPVSNQSSLQFSNPSGSLVTPSLVTSSLTDPRLLSPQQPALQRNSVSPGLPQRPASAGAMLGGDLNSANGACPSPVGNGYVSARASPGLLPVANGNSLNKVIPAKSPPPPTHSTQLGAPSRKPDLRVITSQAGKGLMHHLTEDHLDLNNAQRLGVSQSTHSLTTPVVSVATPSLLSQGLPFSSMPTAYNTDYQLTSAELSSLPAFSSPGGLSLGNVTAWQQPQQPQQPQQPQPPQQQPPQPQQPQPQQPQQPQQPPQQQSHLVPVSLSNLIPGSPLPHVGAALTVTTHPHISIKSEPVSPSRERSPAPPPPAVFPAARPEPGDGLSSPAGGSYETGDRDDGRGDFGPTLGLLRPAPEPEAEGSAVKRMRLDTWTLK [MEF2D] | 0.0539 | 0.219 |
| MGSAKSVPVTPARPPPHNKHLARVADPRSPSAGILRTPIQVESSPQPGLPAGEQLEGLKHAQDSDPRSPTLGIARTPMKTSSGDPPSPLVKQLSEVFETEDSKSNLPPEPVLPPEAPLSSELDLPLGTQLSVEEQMPPWNQTEFPSKQVFSKEEARQPTETPVASQSSDKPSRDPETPRSSGSMRNRWKPNSSKVLGRSPLTILQDDNSPGTLTLRQGKRPSPLSENVSELKEGAILGTGRLLKTGGRAWEQGQDHDKENQHFPLVES [CDCA3] | 0.957 | -0.032 |
